# B1: HDV Ribozyme (parent)
# chain: GGCCGGCAUGGUCCCAGCCUCCUCGCUGGCGCCGGCUGGGCAACAUUCCGAGGGGACCGUCCCCUCGGUAAUGGCGAAUGGGACCCA
# Variants of: B1
# Experiment: self-cleavage, relative activity (ratio to wild type); higher = more cleavage; co-transcriptional
row,Variant,self-cleavage
1,U12A C41G,0.138
2,C4G C64U,0.214
3,C58G U69G,1.17
4,U69A A83C,0.499
5,U69A A83U,0.427
6,C4A A8C,0
7,A45U U60G,0.643
8,A56G G74C,0.125
9,U9G G80C,0.246
10,A43C G55A,0.511
11,U9G G68C,1.02
12,G10A G54A,0.591
13,C19U G25U,0.188
14,G29A A78U,0.143
15,C13U C24U,0.262
16,G6A U47C,0.525
17,C75A C85U,0.256
18,G34A G82U,0.129
19,G31A A77U,0.0906
20,C19U G52U,0.265
21,G52U A77U,0.743
22,C57A C61G,1.05
23,C84A C86U,0.719
24,C48G G74C,0.0755

row,Variant,self-cleavage
1,A56G A77C,0.199
2,U72G G74U,0.264
3,C21G C36U,0.0326
4,C48U U72A,0.855
5,G6U C41A,0.269
6,C61G C75G,0.113
7,U23C U37C,1.15
8,A45G U60G,1.31
9,U12C U79C,0.133
10,A51G G67U,0.65
11,G31U U37G,0.107
12,A8U G76A,0.95
13,C22A C30A,0.0405
14,C14G U20G,0.151
15,G2U C4U,0.0755
16,G59U A87U,1.09
17,G55C G81U,0.256
18,U12G A83G,0.89
19,G6C U69A,0.208
20,C22U G50A,0.745
21,U47G C85A,0.959
22,G1C A78C,0
23,C33U C86A,0.746
24,C61A A77G,1.03

row,Variant,self-cleavage
1,C49U C58G,1.01
2,C4G C19U,0.0779
3,G5A U47G,0.0875
4,C21A G34C,0
5,U47G G59U,1.12
6,U47G G59A,1.14
7,A51G C57A,0.877
8,G50A A78G,0.923
9,A78U,0.316
10,C57G G68A,1.18
11,G31C G68A,0.372
12,C15A C85G,0.739
13,U12G A87U,0.813
14,A43C A56U,0.584
15,C75G C85U,0.237
16,G1C U46G,0.119
17,C44A G67U,0.658
18,C64A G80C,0.125
19,G6U U72G,0.133
20,G67C A87G,0.961
21,G53C U65A,0.629
22,G11A G35C,0.0536
23,G11U A78U,0.0755
24,G67C A71G,0.743

row,Variant,self-cleavage
1,G40A A42U,0.802
2,C58G G76A,1
3,C48U G82C,0.196
4,A70U C84A,0.969
5,C21A U72A,0
6,C75G G82A,0.208
7,U23A U47A,0.877
8,G54A G80A,0.443
9,C13U G74A,0.131
10,C22A G29U,0.128
11,U46A G52U,0.596
12,C26G U69C,1.26
13,C48G C57G,1.03
14,C30U G38A,0.0773
15,C14A C84U,0.262
16,C48G A77U,0.748
17,C57U G80C,0.145
18,G11U A42U,0.0852
19,G67C G76C,1.09
20,C26G C36U,0.529
21,C26G C36A,0.151
22,G1A A51U,0
23,G11C G28A,0.0225
24,C33A G67U,0.253

row,Variant,self-cleavage
1,U23A G40A,1.14
2,G6A C85G,0.608
3,C49G G55C,1.03
4,G2C C7G,0.0692
5,G1U G68U,0.287
6,A8G G68C,1.06
7,G29U G31U,0.0804
8,C41G C63A,0.791
9,U12C C19A,0.0361
10,C49A G80U,0.188
11,A77G G80A,0.242
12,A16U A43U,0.443
13,U27C C61U,0.978
14,G53A C86U,0.881
15,C19A C75G,0.0528
16,G35C C44G,0.145
17,C36A C44A,0.19
18,U9C A51U,1.06
19,A16C C75G,0.268
20,C63G U69C,0.567
21,C62G G80C,0.0791
22,C7A G81U,0.116
23,U9C C62A,1.14
24,U46G C58U,0.532

row,Variant,self-cleavage
1,U46G C58A,0.639
2,G53C A71G,1.07
3,C58G A77C,0.361
4,U23C G53A,0.849
5,C33U G54A,1.05
6,U20C C66U,0.0831
7,C24A A51C,0.516
8,G50U G73A,0.634
9,C32G A56U,0.0482
10,G10A U72C,0.175
11,C7A C14A,0.123
12,C18G G54U,0.0563
13,G6C C44A,0.208
14,U27G G29C,0.733
15,G10A C58A,0.816
16,G31U U69A,0.511
17,C14G U65G,0.665
18,U20G A70G,0.312
19,G50C G68U,0.597
20,A42C C85A,0.18
21,U47A G81A,0.341
22,C7G C48U,0.262
23,C48G C49G,0.906
24,G31A G74U,0.134

row,Variant,self-cleavage
1,C36G U37A,0.446
2,C44G C58G,0.665
3,A42G C57G,0.453
4,A77C G82C,0.116
5,G39U G68U,0.56
6,G1A G81C,0.269
7,U37G C85U,0.161
8,U46G A87U,0.67
9,G1A A87U,0.157
10,C21G C30A,0
11,C3G U37C,1.08
12,G25C A78U,0.131
13,G6U C18A,0.131
14,A56U C58G,1.08
15,C32U U60A,0.782
16,U47A C63G,0.653
17,U46A G68C,0.633
18,G50U G53C,0.437
19,C36G C64G,0.156
20,C22G A42U,0.0639
21,G1C G81U,0.192
22,U46C U60C,0.772
23,U37A G39A,0
24,G2U A71G,0.141

row,Variant,self-cleavage
1,C32G C44G,0.0426
2,C4U G39A,0.136
3,C19U C30U,0.0608
4,G35C G54C,0.17
5,C4A U65A,0.594
6,C26A A77G,0.902
7,G5A U9A,0.332
8,C21A G59A,0.0936
9,U20A G29C,0.128
10,U9G C32G,0.317
11,U46C C64A,0.569
12,G55A G68C,0.777
13,G31A G68A,0.481
14,G50A C66U,0.989
15,G31A A83C,0.0811
16,G39U C41A,0.719
17,G6C G74C,0
18,G53U C66A,0.937
19,G2U U65C,0.0391
20,U9G G53A,1.03
21,C7G G53A,0.26
22,G11C C22G,0.0386
23,G17A C32G,0.0415
24,C24A A71G,0.61

row,Variant,self-cleavage
1,A45G A83G,0.95
2,C18G U37C,0.256
3,C15U G68U,0.88
4,G81C C86G,0.138
5,G38U G39C,0
6,C7G C13A,0
7,C48A G68U,1.1
8,A16U G55C,0.98
9,C7G G35A,0.156
10,G28A G40C,0.0702
11,G6C A8G,0.332
12,G17A G67A,0.501
13,G74U G76U,0.794
14,G39A G40A,0.786
15,G34C A70U,0.0378
16,C30G A45U,0.107
17,G31A G76C,0.469
18,G34A G74C,0.102
19,G31C C49A,0.415
20,A16G G38U,0.341
21,C19U G39C,0.133
22,G59C G81C,0.261
23,A51U G54A,0.973
24,U37C G52C,0.856

row,Variant,self-cleavage
1,U9C G73C,0.291
2,C24A C61A,0.906
3,U37A U65G,0.244
4,C13G C30U,0.26
5,C15A U20C,0.135
6,G54U G55U,0.921
7,G25A U47A,0.0831
8,G11A C63A,0.345
9,A8G C57A,0.779
10,C36G A45C,0.0504
11,C4A G52A,0.401
12,U12G G53C,0.831
13,C49A A78U,0.248
14,G39U C66A,0.739
15,C30G G74U,0.128
16,G17U C30U,0.716
17,G25U C41G,0.119
18,G1C U65C,0.128
19,U27G C30U,0.554
20,U27C G38C,0.123
21,A16U U79A,1.09
22,C15U C57G,1.06
23,C3U G52C,0.546
24,C3A G50A,0.545

row,Variant,self-cleavage
1,C44A C57U,0.582
2,U37C U60G,0.906
3,C4G A8U,0.214
4,C58U A78G,0.77
5,C13A G35C,0.0339
6,G28A C49G,0
7,C44U G80A,0.125
8,C44U C84U,0.516
9,A42C A83U,0.122
10,U12G G73A,0.323
11,G31U G53C,0.563
12,A43G A56C,0.587
13,C58A U65G,1.05
14,G31U A77C,0.0489
15,G17C A77U,0
16,C3G G38C,0.192
17,C61U A71C,0.746
18,C18G G34A,0.136
19,C26A G54A,0.79
20,C66U C84A,0.909
21,U65C U72A,0.665
22,C30U C61G,0.369
23,G50C C85G,0.831
24,C13U G29A,0.104

row,Variant,self-cleavage
1,C13U G29C,0.0332
2,G31U C57U,0.383
3,G25U U60A,0.237
4,C18G C49G,0.0723
5,G17U A56U,0.533
6,C22A U23C,0.0978
7,C7U U12A,0.35
8,A71G G82C,0.151
9,C13G G55A,0.0875
10,C44A G76C,0.614
11,G34A U65C,0.141
12,G2U A16U,0.0237
13,G2U A16G,0.0426
14,U20A C62A,0.119
15,U23C G81A,0.591
16,U37C A87C,1.21
17,G5U U65C,0.723
18,G25A G73C,0.113
19,A43C U69A,0.532
20,C15G A83U,0.0791
21,G10C C33A,0.213
22,G29U G73C,0.185
23,C13G A43U,0.0923
24,A42U G74C,0.17

row,Variant,self-cleavage
1,C18G U79A,0.0615
2,G31A G80U,0.104
3,G76A A83U,0.875
4,C3U U23C,0.776
5,C57A A87C,1.05
6,G31U C36U,0.0702
7,G31A A56C,0.445
8,C18U U72G,0.287
9,A16U U46G,0.437
10,A51G G68C,0.831
11,A45C G67C,0.731
12,G17A G31A,0.234
13,U12A C61A,0.443
14,G29C G40A,0.0804
15,C61U G82U,0.518
16,C3A C58U,0.596
17,C49A G52C,0.573
18,C13U C36G,0.0723
19,U20G C62A,0.312
20,C4U C84U,0.514
21,G1C C41G,0
22,G5C A8U,0.0665
23,A8G C41G,0.578
24,U20G U60G,0.0831

row,Variant,self-cleavage
1,G6U A16G,0.388
2,U9G C15G,0.739
3,U23A C33U,1.05
4,G38A C41G,0.291
5,A70C G81C,0.201
6,A42C C84U,0.224
7,G55A C86U,0.989
8,C7G C62G,0.111
9,C44U G53C,0.658
10,C3A C41U,0.321
11,G6C C63U,0.348
12,G10C G54A,0.831
13,C24G U69A,0.204
14,G55U C58A,0.843
15,G40A U69C,0.876
16,C57U G67U,0.974
17,G52U G73A,0.546
18,G5U A78U,0.0723
19,U69G C86G,0.692
20,C57G C85U,0.849
21,A42G C64A,0.302
22,G6C C58A,0.308

# From the RNAGym collection of RNA variant scans (doi:10.7554/elife.80360)
